Test results published in patent US10704030B2, “P450-BM3 variants with improved activity” (Codexis, Inc., priority 2015, dated 2020).

Key:
Format in all cases: biochemical
[1] = Validation of generalist properties: oxidation of imatinib by lyophilized P450-BM3 variant, UPLC-MS; details: [Imatinib] = 1 mM; for TON: TON = [substrate]*% conversion/[P450]; for FIOPC (A05): fold improvement over parent MCYP-1.2-A05
Method: (§1) For the production of lyophilized protein powders, LB agar plates supplemented with chloramphenicol (30 μg/mL) were streaked with E. coli containing a desired B. megaterium P450-BM3 variant in an IPTG-inducible vector. The plates were grown at 37° C. for 16 hrs before single clones were selected to inoculate a 15 mL Falcon™ tube (Fisher) containing TB media (3 mL) supplemented with chloramphenicol (30 μg/mL). The tube was shaken at 200 rpm, 30° C., and 85% humidity for 20-24 h to grow the cultures to saturation. Then, 2.5 mL of the overnight culture was used to inoculate sterile 1 L flasks containing TB medium (250 mL) supplemented with chloramphenicol (30 μg/mL), trace element solution (as described above), and 0.05 g/L ammonium iron (III) citrate. After being shaken at 250 rpm, 30° C., and 85% humidity to an OD600 of 0.8-1.2, P450 expression was induced by addition of IPTG (500 uM) and the heme precursor 5-aminolevulinic acid (5-ALA) to a final concentration of 500 uM. The cultures were grown for additional 20-24 hours and centrifuged in pre-weighed 250 mL centrifuge bottles for 20 minutes at 4000 rpm, 4° C. The supernatants were discarded, and the centrifuge bottles containing cell pellets were weighed. The pellets were resuspended in 50 mM potassium phosphate buffer with 2 mM DTT, pH 8.0 (5 mL of buffer per gram of cell pellet). The cells were lysed using a microfluidizer homogenizer, and the suspensions of cells and lysate were collected in sterile 50 mL centrifuge tubes. The samples were centrifuged for 30 minutes at 10,000 rpm, 4° C. The clarified lysate was collected into a plastic petri plate and frozen at −80° C. prior to lyophilization. The enzyme-containing lysates were lyophilized using standard methods known in the art.
(§2) Enzyme stocks (˜12 μM) were prepared by dissolving ˜20 mg of each enzyme in 100 mM potassium phosphate buffer, pH 8.0 (1 mL). The concentration of each enzyme stock solution was determined by the UV-visible absorption spectroscopy (after centrifugation to remove particulates) and diluted to standardize at 12 μM heme protein. Substrate solutions were prepared by dissolving each substrate in DMSO to reach a final concentration of 20 mM or 40 mM. Reaction mix (235 μL) followed by enzyme solution (50 μL) was added to the plates. The substrate stock solution was added to the enzyme solutions (15 μL at the two different concentrations). Each reaction contained 100 mM potassium phosphate, 1.0 mM NADP+, 25 mM glucose, 0.5 mg/mL glucose dehydrogenase, 5% DMSO and substrate at 1 or 2 mM. Loratadine, imatinib, and gefitinib (See, FIG. 1) were selected as substrates in addition to diclofenac to validate improved BM3 variants. The reactions were shaken at 450 rpm at 30° C. over 24 hours. All reactions were diluted with acetonitrile to a final concentration of 0.5 mM substrate. The plates were then centrifuged at 3,000 g for 1 hour at 20° C. The supernatant was diluted 1:1 with acetonitrile, filtered using a 0.4 micron filter, and analyzed by UPLC-MS.
(§3) For UPLC-MS analysis, the quenched and filtered reactions were transferred to 96-well HTP plates for analysis by UPLC on a Waters Acquity H-class system equipped with an autosampler. 1 uL of quenched sample was injected onto an Acquity UPLC HSS T3 column, 100 Å, (1.8 um; 2.1×100 mm). The column was eluted at a constant flow rate of 0.6 mL/min; conditions with solvent A (0.05% trifluoroacetic acid v/v, in H2O) and solvent B (0.05% trifluoroacetic acid v/v, in acetonitrile) used to elute the products of the reaction were: 0-2 min, A/B 95:5; 2-2.9 min, A/B 5:95; 2.9-3 min, A/B 95:5; 3-3.5 min, A/B 95:5. Column eluent was monitored by PDA (200-600 nm) prior to MS analysis in positive ESI mode (desolvation temperature 350° C., 3.25 kV spray voltage, cone voltage 25V). The column eluent was diverted to waste for the first 0.7 minutes of the run. For the remainder of the LC run, both MS (m/z 95-600 scan range) and MS/MS were collected. […]

[2] = Validation of generalist properties: oxidation of diclofenac by lyophilized P450-BM3 variant, UPLC-MS; details: [Diclofenac] = 1 mM; for TON: TON = [substrate]*% conversion/[P450]; for FIOPC (A05): fold improvement over parent MCYP-1.2-A05
Method: as §1, §2, §3

[3] = Validation of generalist properties: oxidation of loratadine by lyophilized P450-BM3 variant, UPLC-MS; details: [Loratadine] = 1 mM; for TON: TON = [substrate]*% conversion/[P450]; for FIOPC (A05): fold improvement over parent MCYP-1.2-A05
Method: as §1, §2, §3

[4] = Validation of generalist properties: oxidation of gefitinib by lyophilized P450-BM3 variant, UPLC-MS; details: [Gefitinib] = 1 mM; for TON: TON = [substrate]*% conversion/[P450]; for FIOPC (A05): fold improvement over parent MCYP-1.2-A05
Method: as §1, §2, §3

B1: Variant 6: P450-BM3 variant of SEQ ID NO: 2: V51S; D118R; L219Y; K236H; P351T; S353T; N579T; T582A; E624D; A632S; D727S; Q931K (protein)
chain: MLMKQASAIPQPKTYGPLKNLPHLEKEQLSQSLWRIADELGPIFRFDFPGSSSVFVSGHNLVAEVCDEERFDKSIEGALEKVRAFSGDGLATSWTHEPNWRKAHNILMPTFSQRAMKRYHEKMVDIATQLIQKWSRLNPNEEIDVADDMTRLTLDTIGLCGFNYRFNSFYRDQPHPFITSMVRALDEAMNKLQRANPDDPAYDENKRQFQEDIKVMNDYVDSIIAERRANGDQDEHDLLARMLNVEDPETGEKLDDENIRFQIITFLIAGHETTSGLLSFAIYCLLTHPEKLKKAQEEADRVLTDDTPEYKQIQQLKYIRMVLNETLRLYPTAPAFSLYAKEDTVLGGEYTITKGQPVTVLIPKLHRDQNAWGPDAEDFRPERFEDPSSIPHHAYKPFGNGQRACIGMQFALQEATMVLGLVLKHFELINHTGYELKIKEALTIKPDDFKITVKPRKTAAINVQRKEQAEQSAKKVRKKAENAHNTPLLVLYGSNMGTAEGTARDLADIAMSKGFAPQVATLDSHAGNLPREGAVLIVTASYNGHPPDNAKQFVDWLDQASADEVKGVRYSVFGCGDKTWAATYQKVPAFIDETLAAKGAENIADRGEADASDDFEGTYEEWRDHMWSDVASYFNLDIENSEDNKSTLSLQFVDSAADMPLAKMHGAFSTNVVASKELQQPGSARSTRHLEIELPKEASYQEGDHLGVIPRNYEGIVNRVTARFGLSASQQIRLEAEEEKLAHLPLAKTVSVEELLQYVELQDPVTRTQLRAMAAKTVCPPHKVELEALLEKQAYKEQVLAKRLTMLELLEKYPACEMKFSEFIALLPSIRPRYYSISSSPRVDEKQASITVSVVSGEAWSGYGEYKGIASNYLAELQEGDTITCFISTPQSEFTLPKDPETPLIMVGPGTGVAPFRGFVQARKQLKEQGKSLGEAHLYFGCRSPHEDYLYQEELENAQSEGIITLHTAFSRMPNQPKTYVQHVMEQDGKKLIELLDQGAHFYICGDGSQMAPAVEATLMKSYADVHQVSEADARLWLQQLEEKGRYAKDVWAG
modifications: P450_BM3
notes: D118R; L219Y; K236H; P351T; S353T; N579T; T582A; E624D; A632S; D727S; Q931K
In the case of B1, the “% Conv.” value [1] is reported as “++++ (15.01-20.00)”, the TON [1] is reported as “‡‡‡‡ (10000-50000)” and the “FIOPC (A05)” value [1] is reported as “* (0.0-3.0)”. For the same molecule, the “% Conv.” value [2] was “++ (5.01-10.00)”, the TON [2] was “‡‡ (1001-5000)” and the “FIOPC (A05)” value [2] was “**** (10.01-15.00)”. For the same molecule, the “% Conv.” value [3] was “++ (5.01-10.00)”, the TON [3] was “‡‡ (1001-5000)” and the “FIOPC (A05)” value [3] was “**** (10.01-15.00)”. For the same molecule, the “% Conv.” value [4] was “+ (0-5.00)”, the TON [4] was “‡ (0-1000)” and the “FIOPC (A05)” value [4] was “* (0.0-3.0)”.

B2: Variant 7: P450-BM3 variant of SEQ ID NO: 2: V51S; D118R; T179V; L219Y; P351T; N579T; T582A; E624D; D727S (protein)
chain: MLMKQASAIPQPKTYGPLKNLPHLEKEQLSQSLWRIADELGPIFRFDFPGSSSVFVSGHNLVAEVCDEERFDKSIEGALEKVRAFSGDGLATSWTHEPNWRKAHNILMPTFSQRAMKRYHEKMVDIATQLIQKWSRLNPNEEIDVADDMTRLTLDTIGLCGFNYRFNSFYRDQPHPFIVSMVRALDEAMNKLQRANPDDPAYDENKRQFQEDIKVMNDYVDSIIAERRANGDQDEKDLLARMLNVEDPETGEKLDDENIRFQIITFLIAGHETTSGLLSFAIYCLLTHPEKLKKAQEEADRVLTDDTPEYKQIQQLKYIRMVLNETLRLYPTAPAFSLYAKEDTVLGGEYTISKGQPVTVLIPKLHRDQNAWGPDAEDFRPERFEDPSSIPHHAYKPFGNGQRACIGMQFALQEATMVLGLVLKHFELINHTGYELKIKEALTIKPDDFKITVKPRKTAAINVQRKEQAEQSAKKVRKKAENAHNTPLLVLYGSNMGTAEGTARDLADIAMSKGFAPQVATLDSHAGNLPREGAVLIVTASYNGHPPDNAKQFVDWLDQASADEVKGVRYSVFGCGDKTWAATYQKVPAFIDETLAAKGAENIADRGEADASDDFEGTYEEWRDHMWSDVAAYFNLDIENSEDNKSTLSLQFVDSAADMPLAKMHGAFSTNVVASKELQQPGSARSTRHLEIELPKEASYQEGDHLGVIPRNYEGIVNRVTARFGLSASQQIRLEAEEEKLAHLPLAKTVSVEELLQYVELQDPVTRTQLRAMAAKTVCPPHKVELEALLEKQAYKEQVLAKRLTMLELLEKYPACEMKFSEFIALLPSIRPRYYSISSSPRVDEKQASITVSVVSGEAWSGYGEYKGIASNYLAELQEGDTITCFISTPQSEFTLPKDPETPLIMVGPGTGVAPFRGFVQARKQLKEQGQSLGEAHLYFGCRSPHEDYLYQEELENAQSEGIITLHTAFSRMPNQPKTYVQHVMEQDGKKLIELLDQGAHFYICGDGSQMAPAVEATLMKSYADVHQVSEADARLWLQQLEEKGRYAKDVWAG
modifications: P450_BM3
notes: D118R; T179V; L219Y; P351T; N579T; T582A; E624D; D727S
For B2, the “% Conv.” value [1] was “++ (5.01-10.00)”, the TON [1] was “‡‡‡‡ (10000-50000)” and the “FIOPC (A05)” value [1] was “** (3.01-5.0)”. For the same molecule, the “% Conv.” value [2] was “+ (0-5.00)”, the TON [2] was “‡‡ (1001-5000)” and the “FIOPC (A05)” value [2] was “**** (10.01-15.00)”. For the same molecule, the “% Conv.” value [3] was “++ (5.01-10.00)”, the TON [3] was “‡‡ (1001-5000)” and the “FIOPC (A05)” value [3] was “**** (10.01-15.00)”. For the same molecule, the “% Conv.” value [4] was “+ (0-5.00)”, the TON [4] was “‡ (0-1000)” and the “FIOPC (A05)” value [4] was “* (0.0-3.0)”.
